B1: hippocalcin(T71N) (natural protein)
chain: not shown
notes: human hippocalcin (HPCA) with the dystonia-causing mutation T71N, in pGEX-6P1; unmyristoylated; Mutation found homozygous in DYT2 dystonia patients; also called HPCA T71N; T71N mutant; source: E. coli BL21(DE3) STAR, purified (GST resin, PreScission cleavage, Superdex 200); not shown: GST, N-terminal, cleaved
B2: hippocalcin(A190T) (natural protein)
chain: not shown
notes: human hippocalcin (HPCA) with the dystonia-causing mutation A190T, in pGEX-6P1; unmyristoylated; Mutation found homozygous in DYT2 dystonia patients; also called HPCA A190T; A190T mutant; source: E. coli BL21(DE3) STAR, purified (GST resin, PreScission cleavage, Superdex 200); not shown: GST, N-terminal, cleaved

Target: the molecule itself
Experiment: cross-linking; in vitro cross-link (BS3 or DSP) of purified protein in the presence of calcium; densitometry after DSP

Protein | binding result
B1 | binds
B2 | binds
